Experimental data published in US20200115433A1.

Biological target: …-HLA-A2 complex (human)
Experiment: SPR BIAcore T200, single-cycle kinetics, pMHC on chip

Kd: 0.425 nM
B1: single chain TCR s-10 (TCR)
chain: SQQGEEDPQALSIQEGENVTINCSYKGWAQNRQNSGRGLVHLILIRSNEREKHSGRLRVTLDTSKKSSSLEITAVRPADTASYFCATDANARWDFGKGTRLHILPGGGSEGGGSEGGGSEGGGSEGGTGDAGVTQSPRHESVEMGQEVTLRCKPISGHDYLFWYRQTPKRGLELLIYFNHGAVIDDSGMPEDRFSAKMPNASFSTLKIQPVEPRDSAVYFCASQLGSNEQYFGPGTRLTVT
